Publication PMC4860041

Target: taxol-stabilized porcine microtubules (tubulin purified from porcine brain) (UniProt P02550)
Assay: co-sedimentation

Chain of taxol-stabilized porcine microtubules (tubulin purified from porcine brain) (P02550 whole entry, looked up): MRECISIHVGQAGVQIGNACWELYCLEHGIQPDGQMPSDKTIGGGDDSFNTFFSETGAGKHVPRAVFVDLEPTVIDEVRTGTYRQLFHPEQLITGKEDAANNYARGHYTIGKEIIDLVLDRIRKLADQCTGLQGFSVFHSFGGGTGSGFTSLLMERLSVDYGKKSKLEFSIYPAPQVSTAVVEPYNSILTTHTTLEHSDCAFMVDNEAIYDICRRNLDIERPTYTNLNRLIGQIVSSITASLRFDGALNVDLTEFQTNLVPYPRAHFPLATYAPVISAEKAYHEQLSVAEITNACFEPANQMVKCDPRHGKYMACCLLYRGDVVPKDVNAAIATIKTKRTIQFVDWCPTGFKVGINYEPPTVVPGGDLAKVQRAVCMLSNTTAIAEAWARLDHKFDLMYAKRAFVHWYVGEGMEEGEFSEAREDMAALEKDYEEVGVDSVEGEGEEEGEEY

Substance | apparent Km
recombinant full-length GFP-MNB kinase (Drosophila Minibrain, isoform E) | a Km of 0.96 ± 0.10 μM (mean ± s.d.)
recombinant GFP-B>A-MNB kinase (Basic-to-Acidic mutant, KKKRR 118-122 to EEEDD) | a Km of 4.46 ± 2.62 μM (mean ± s.d.)
